Assay [1] concerns the target T1, recombinant monkey TfR (extracellular region of cynomolgus monkey transferrin receptor, N-terminal histidine … (cynomolgus monkey (Macaca fascicularis), UniProt Q5RDH6 89-760 (Pongo abelii entry))).
T1 construct: also called r monkey TfR; monkey TfR-ECD (Histag); not shown: histidine tag at the N-terminus
T1 chain: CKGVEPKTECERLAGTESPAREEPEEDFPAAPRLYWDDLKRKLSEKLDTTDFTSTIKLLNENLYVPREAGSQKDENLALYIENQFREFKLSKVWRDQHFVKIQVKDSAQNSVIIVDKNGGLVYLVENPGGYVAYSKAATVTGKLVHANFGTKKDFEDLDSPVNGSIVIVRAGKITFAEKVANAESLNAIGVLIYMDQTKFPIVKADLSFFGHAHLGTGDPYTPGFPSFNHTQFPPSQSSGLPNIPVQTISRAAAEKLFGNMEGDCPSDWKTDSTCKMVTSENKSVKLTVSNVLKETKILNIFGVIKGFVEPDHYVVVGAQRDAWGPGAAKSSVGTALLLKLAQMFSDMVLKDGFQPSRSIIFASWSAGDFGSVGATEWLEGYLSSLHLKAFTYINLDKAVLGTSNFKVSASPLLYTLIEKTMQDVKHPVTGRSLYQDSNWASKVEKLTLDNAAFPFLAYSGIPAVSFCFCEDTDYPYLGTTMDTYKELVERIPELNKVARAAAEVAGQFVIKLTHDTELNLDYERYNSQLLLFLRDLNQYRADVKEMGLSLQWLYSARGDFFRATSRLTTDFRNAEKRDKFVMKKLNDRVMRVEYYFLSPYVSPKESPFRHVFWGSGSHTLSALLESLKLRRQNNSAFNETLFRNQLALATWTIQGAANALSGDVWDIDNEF
The experiment in a line: BLI (OctetRED96), His-tagged TfR ECD on Ni-NTA biosensor, peptide in solution.

For assay [2], the target named is T2, recombinant hTfR (extracellular region of human transferrin receptor, N-terminal histidine tag) (human, UniProt P02786 89-760).
T2 construct: also called rhTfR; human TfR; not shown: histidine tag at the N-terminus
The description is as above.

Assay [3] concerns the target T1, recombinant monkey TfR (extracellular …). The description is as above.
For assay [4], the target named is T3, recombinant mouse TfR (extracellular region of mouse transferrin receptor, N-terminal histidine tag) (mouse, UniProt Q62351 89-763).
T3 construct: also called r mouse TfR; mouse TfR-ECD (Histag); not shown: histidine tag at the N-terminus
T3 sequence (Q62351 89-763): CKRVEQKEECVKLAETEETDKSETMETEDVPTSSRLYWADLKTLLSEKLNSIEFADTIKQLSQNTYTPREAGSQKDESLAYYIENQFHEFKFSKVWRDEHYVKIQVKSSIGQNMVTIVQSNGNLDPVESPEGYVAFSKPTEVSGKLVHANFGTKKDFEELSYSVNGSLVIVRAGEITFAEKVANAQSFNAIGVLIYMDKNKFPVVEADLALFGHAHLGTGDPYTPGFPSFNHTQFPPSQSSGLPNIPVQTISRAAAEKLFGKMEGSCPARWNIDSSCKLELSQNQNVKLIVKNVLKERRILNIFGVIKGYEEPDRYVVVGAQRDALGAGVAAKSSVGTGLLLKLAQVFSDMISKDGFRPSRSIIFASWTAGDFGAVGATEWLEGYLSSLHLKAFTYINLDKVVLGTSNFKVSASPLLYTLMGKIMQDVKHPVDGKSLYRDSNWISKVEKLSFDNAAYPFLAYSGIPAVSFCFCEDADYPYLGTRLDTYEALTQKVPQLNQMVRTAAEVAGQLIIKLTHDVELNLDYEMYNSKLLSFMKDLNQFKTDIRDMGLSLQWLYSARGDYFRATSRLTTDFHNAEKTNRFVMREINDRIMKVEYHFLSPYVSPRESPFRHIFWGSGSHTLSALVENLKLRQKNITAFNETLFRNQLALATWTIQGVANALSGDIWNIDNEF
The description is as above.

Assay [5] addresses T1, recombinant monkey TfR (extracellular …). The experiment in a line: calculated from BLI KD values; reference is the KD of the same peptide for hTfR.
The target in assay [6] is T3, recombinant mouse TfR (extracellular …). The assay is described as above.

Residue numbers refer to the chain shown, from its start. Like-named read-outs stand apart in the source and are kept apart here.

B1: hTfR affinity peptide 1 (VHH)
VHH: QVQLVESGGGLVQPGESLRLSCAASGSIFDIYVMRWYRQAPGKQREWVASIYDGGRSDYEAVVKGRFIISRDNAKNTGYLQMNSLKPEDTAVYFCNVLIYAGRNYWGQGTQVTVSS
notes: also called Clone 1; VHH(1)
B1: the Kd – broadly, the equilibrium constant for the complex coming apart – in assay [1] stood at 8.24 nM; in assay [2] it was 0.932 nM; in assay [3] it was 82.4 nM; in assay [4], 5.31 nM. Also, the figures for the “relative value of the dissociation constant (KD with hTfR set to 1)” value in assay [5] and in assay [6] were 8.84 fold and 5.7 fold, respectively.

B2: hTfR affinity peptide 3 (VHH)
VHH: B1 VHH with L20I, E60V, A61N, I68T, Y79D, I99T, A101P
notes: It says only that the purified product was obtained in the same manner as peptide 1; also called Clone 2; VHH(3)
Regarding B2, the Kd in assay [2] stood at 4.4 nM; in assay [3] it was 17.4 nM; in assay [4] it was 5.75 nM. Moreover, the “relative value of the dissociation constant (KD with hTfR set to 1)” value in assay [5] is 3.95 fold; in assay [6] it was 1.31 fold.

(Values after patent EP4653533A1 (JCR Pharmaceuticals Co., Ltd., dated 2025).)
